± gives the standard deviation of the averaged measurements.
These sequences were tested on Saccharomyces cerevisiae (assay: protein stability index of tFT-peptide fusion (C-terminal peptide) (PSI (0-1 scale)); higher = more stable (slower turnover)). Conditions: genetic background: cdc34-1; temperature: 37 C.
Description: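 MPS profiling in S. cerevisiae of the tFT-X12 degron library: putative degron peptides plus stable controls, 12 aa, fused to the C-terminus of a sfGFP-mCherry timer. Cells are FACS-sorted into 8 mCherry/sfGFP bins and deep-sequenced. PSI runs from 0 (unstable) to 1 (stable). Backgrounds are wild type, das1Δ and doa10Δ at 30 °C, and wild type, das1Δ, cdc34-1 and cdc53-1 at 37 °C; 2-3 technical replicates each.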
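Note: PSI is a weighted mean of sequencing reads over stability bins, variants kept only with over 10 reads, mCherry proximal and sfGFP distal, peptide attached via GGGS linker.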

GGGGGGRWGRLC and IRRWGRCRVRCM are within error of each other in protein stability index: 0.634 ± 0.047 for the first, 0.584 ± 0.029 for the second.

Compared with LIVFSGFLFLLS, PVPERTSATEPP is higher in protein stability index: 0.442 ± 0.01 for the first, 0.61 ± 0.052 for the second.

First: RLLLLPGPLALQ
Second: RRAVGLANFTIK
The protein stability index of the first is lower: 0.634 ± 0.022 for the first, 0.705 ± 0.016 for the second.

First: VLICFSVFSWVV
Second: VPPGCSLFAFIL
The protein stability index of the first is lower: 0.0264 ± 0.00023 for the first, 0.7246 ± 0.005 for the second.

Same assay, conditions: genetic background: cdc53-1; temperature: 37 C

Compared with AEIVCLTDGLLF, AFFLLVSLLVSP is lower in protein stability index: 0.758 ± 0.038 for the first, 0.0989 ± 0.021 for the second.

Going from AFPSSVILMVFS to AFVVYSGSHGLV, the protein stability index rises from 0.32 ± 0.034 to 0.75 ± 0.032.

Compared with AGALAVALPCIC, AGGGGRFWVCVG is higher in protein stability index: 0.506 ± 0.018 for the first, 0.7348 ± 0.0059 for the second.

ALLVLTVSYVFS and ALVWYSLSIIVN are within error of each other in protein stability index: 0.0772 ± 0.044 for the first, 0.0815 ± 0.086 for the second.

APGGRGAAGPSC and APPLPFPTPPPS are within error of each other in protein stability index: 0.7207 ± 0.0065 for the first, 0.747 ± 0.034 for the second.

Compared with ARALLGVGWYWV, ARCKRSLSGGIG is lower in protein stability index: 0.7854 ± 0.0065 for the first, 0.579 ± 0.02 for the second.

Going from ARSGGYLMVVLV to ASFVCWSVCALG, the protein stability index falls from 0.599 ± 0.011 to 0.545 ± 0.006.

Going from ASGFLVIPLWVF to ASICAFFCWFLV, the protein stability index rises from 0.4653 ± 0.0021 to 0.58116 ± 0.00042.

Going from ASSFYVDLVLVS to AVTMSYQCGIFI, the protein stability index rises from 0.464 ± 0.024 to 0.672 ± 0.031.

AYACSILRCKSS and CAGRQGRERGHT are within error of each other in protein stability index: 0.727 ± 0.013 for the first, 0.7217 ± 0.0042 for the second.

CALFLLSSPSPT and CASIVDGFAFRF are within error of each other in protein stability index: 0.781 ± 0.01 for the first, 0.782 ± 0.03 for the second.

Compared with CFCPILFPRCLA, CFGFMFLLLFDV is lower in protein stability index: 0.636 ± 0.016 for the first, 0.312 ± 0.0066 for the second.

Going from CFRRPLLRVVLT to CFSYLLIVLLFP, the protein stability index falls from 0.5681 ± 0.0051 to 0.2273 ± 0.00043.

First: CFVPFFLPLCAF
Second: CGILACSVCTFF
The protein stability index of the first is lower: 0.0285 ± 0.0074 for the first, 0.6516 ± 0.0037 for the second.

Compared with CGLLWFYSFFLF, CGLYNQFCLFLY is higher in protein stability index: 0.491 ± 0.013 for the first, 0.626 ± 0.022 for the second.

Going from CGVWVVVASAYR to CGWVRRARVKMM, the protein stability index rises from 0.483 ± 0.03 to 0.693 ± 0.01.

First: CHFLLPFLFTCA
Second: FGGVFCVMARLV
The protein stability index of the first is lower: 0.28 ± 0.0099 for the first, 0.685 ± 0.016 for the second.

Going from GGGGGGRWGRLC to IRRWGRCRVRCM, the protein stability index falls from 0.752 ± 0.031 to 0.655 ± 0.034.

First: LIVFSGFLFLLS
Second: PVPERTSATEPP
The protein stability index of the first is lower: 0.53 ± 0.049 for the first, 0.667 ± 0.029 for the second.

RLLLLPGPLALQ and RRAVGLANFTIK are within error of each other in protein stability index: 0.73 ± 0.034 for the first, 0.773 ± 0.035 for the second.

First: VLICFSVFSWVV
Second: VPPGCSLFAFIL
The protein stability index of the first is lower: 0.0313 ± 0.00079 for the first, 0.75537 ± 0.00043 for the second.

Same assay, conditions: genetic background: das1 deletion; temperature: 30 C

Compared with AEIVCLTDGLLF, AFFLLVSLLVSP is lower in protein stability index: 0.623 ± 0.013 for the first, 0.122 ± 0.046 for the second.

— the supplement of paper PMC10724198
